Results taken from patent US20230047413A1 (Janssen / Centocor, published 2023).
Residue numbers refer to the chain shown, from its start.

Experiments:
[1] = biological target: T1, tau phospho-peptide of the direct ELISA of Example 11; assay: direct ELISA on plate-coated tau phospho-peptide, Fabs
T1 construct: also called pT217 peptide; pT212/pT217 peptide
Method: (§1) Binding to tau phospho-peptide was analysed by ELISA where peptide (10 ng/mL) was directly coated to the plate overnight. […] After incubation with antibodies, plates were washed and 50 μL per well of HRPO labelled anti-Fab antibody (Jackson Immunoresearch laboratories) (diluted 1:10000 in blocking buffer). After another washing step detection was performed with “One step” TMB (Thermo Scientific) according to the manufacturers' instructions. Plates were analysed in EnVision® 2102 Multilabel Reader (Perkin Elmer, Waltham, Mass., USA). Binding curves were generated using GraphPad Prism7.0 software.

[2] = biological target: T2, PHF-tau (paired helical filament tau isolated from Alzheimer's disease brain) (human, UniProt P10636-8 2-441, limits assumed, hyper-phosphorylated, aggregated; sites not listed for the preparation); assay: SPR ProteOn, PHF-tau capture-coupled via HT7, 1:1 model; lower end of range
T2 construct: also called enriched PHF-tau; ePHF-tau
T2 sequence (P10636 other isoform, or with tags, fused parts or gaps limits assumed): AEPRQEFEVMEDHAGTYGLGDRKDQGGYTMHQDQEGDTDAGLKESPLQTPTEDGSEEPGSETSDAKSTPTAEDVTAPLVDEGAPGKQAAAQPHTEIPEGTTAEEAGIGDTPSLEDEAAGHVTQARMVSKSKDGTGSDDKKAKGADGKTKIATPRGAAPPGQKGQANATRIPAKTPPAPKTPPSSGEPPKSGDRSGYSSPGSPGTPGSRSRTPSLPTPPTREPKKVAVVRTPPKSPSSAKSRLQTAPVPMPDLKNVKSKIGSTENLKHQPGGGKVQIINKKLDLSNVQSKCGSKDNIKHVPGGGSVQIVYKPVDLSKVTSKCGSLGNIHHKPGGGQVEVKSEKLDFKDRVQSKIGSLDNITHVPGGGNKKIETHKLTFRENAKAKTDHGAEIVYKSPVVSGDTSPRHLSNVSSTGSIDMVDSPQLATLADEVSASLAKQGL
Method: (§2) Affinity matured monoclonal antibodies were tested for binding to PHF-tau isolated from Alzheimer's disease brain.
(§3) A GLC sensor chip was covalently immobilized with a mouse anti-tau antibody, HT7 (ThermoFisher, catalog# MN1000) using the vendor recommended protocol for amine-coupling chemistry (˜5000 response units, RU). The coupling buffer was 10 mM, pH 4.5 sodium acetate. PHF-tau was prepared by 2-times centrifugation at 5000×g in 5° C. for 10 min. […] After capture-coupling, the surface was activated and deactivated to generate a homogenous PHF-tau surface for antibody binding studies. The anti-tau antibodies and their Fabs (prepared in running buffer, 0.024-75 nM at 5-fold dilutions) were injected at 50 μL/min over the PHF-tau surface to measure binding. The association and dissociation profiles were monitored for 4 minutes and 2 hours, respectively. After dissociation, the sensor chip was regenerated using multiple injections of 10 mM Glycine pH 2.0 and the running buffer. A reference surface (without any PHF-tau) was used to monitor non-specific binding of the injected mAbs or Fabs. HT7 antibody was used as a positive control. The binding sensorgrams for mAbs were fit using a bivalent binding model where the apparent affinity or avidity-driven binding (KD) was reported as the ratio of off-rate and on-rate (koff/kₒₙ). A 1:1 Langmuir binding model was used for kinetics analysis of Fabs.

[3] = biological target: T1, tau phospho-peptide of the direct ELISA …; assay: direct ELISA, peptide coated
Method: as §1

[4] = biological target: T2, PHF-tau (paired helical filament tau …); assay: SPR ProteOn, PHF-tau capture-coupled via HT7, 1:1 model; upper end of range
Method: as §2, §3

[5] = biological target: T2, PHF-tau (paired helical filament tau …); assay: SPR ProteOn, PHF-tau capture-coupled via HT7, 1:1 model
Method: as §2, §3

[6] = biological target: T3, Peptide-2 (human, phosphothreonine 212, phosphothreonine 217 (tau 2N4R numbering); short chain biotin (SCBiot) and dPEG4 at the N-terminus; amide at the C-terminus); assay: SPR ProteOn, peptide captured, Fab as analyte; range of n=2
T3 construct: also called pT212/pT217-tau peptide (Peptide-2)
T3 sequence (peptide, as listed by the source): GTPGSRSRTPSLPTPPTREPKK
Method: (§4) A subset of HFA-PT3 monoclonal antibody variants, selected based on biophysical characterization and ELISA binding to PHF, were analyzed by Surface Plasmon Resonance (SPR) with a ProteOn XPR36 for binding to the following phosphopeptides: pT212/pT217-tau peptide (Peptide-2, SEQ ID NO: 48) and pT212-tau peptide (Peptide-8, SEQ ID NO: 54). All experiments were performed at 25° C. using PBST, pH 7.4, (Bio-Rad Cat#176-2720) as both running buffer and sample dilution buffer.
(§5) Fab/peptide binding. Biotinylated peptide was captured on a neutravidin-coated NLC biosensor chip pre-conditioned with PBST, and Fab was flowed over the surface to measure kinetic parameters. Approximately 5-10 RU of peptide was captured on the chip surface by diluting peptide to 10 ng/mL in PBST and injecting over the flow channels at 30 μL/min for 100 s. Serial dilutions of PT3 Fab (1.1 nM to 90 nM) were injected at 60 μL/min for 3 minutes (association phase), followed by 300 s of buffer only (dissociation phase).
(§6) Data were double referenced by subtraction of the interspot response, and the curves generated by the buffer only injection. The chip surface was regenerated with 0.85% phosphoric acid, followed by PBST injection before the next antibody titration injection. Data processing and analysis were performed using instrument software. The data were fit using a simple Langmuir 1:1 binding model.

[7] = biological target: T3, Peptide-2; assay: SPR ProteOn, peptide captured, Fab as analyte; range of n=2; upper end of n=2 range
Method: as §4, §5, §6

[8] = biological target: T2, PHF-tau (paired helical filament tau …); assay: SPR ProteOn, PHF-tau on chip
[9] = biological target: T2, PHF-tau (paired helical filament tau …); assay: SPR ProteOn, PHF-tau capture-coupled via HT7, 1:1 model; remark: listed apart in the source
Method: (§7) A subset of HFA-PT3 monoclonal antibodies was tested for binding to PHF-tau isolated from Alzheimer's disease brain. All interactions were studied at 25° C. using PBS pH 7.4, supplemented with 3 mM EDTA, and 0.005% Tween 20 as running or system buffer. HT7 (Pierce, catalog #MN1000), a mouse anti-tau antibody, was used as a positive control.
(§8) The interaction of anti-tau monoclonal antibodies with PHF-tau was analyzed by ProteOn using a biosensor surface prepared by capture-coupling PHF-tau using HT7 as the capture reagent. PHF-tau was prepared by 2-times centrifugation at 5000×g at 5° C. for 10 min; the supernatant from the second centrifugation was then diluted 1/40 in running buffer. To prepare the chip, HT7 was covalently immobilized to the surface of a GLC (ProteOn) sensor chip using the manufacturer's instructions for amine-coupling chemistry (˜5000 response units (RU)). The coupling buffer was 10 mM sodium acetate, pH 4.5. After HT7 immobilization, PHF-tau was injected and captured (˜300 RU) by HT7. After capture, PHF-tau was covalently immobilized to the sensor chip by activation of the chip using the manufacturer's instructions for amine-coupling chemistry. Remaining reactive sites were blocked by the injection of ethanolamine. After preparation and stabilization of the PHF-tau-modified surface and reference surface (containing no antigen), the anti-tau antibodies were diluted in the running buffer and injected in solution (0.12-75 nM in 5-fold dilutions). The association was monitored for 3 minutes (120 μL injected at 40 μL/min). The dissociation was monitored for 15 minutes. Regeneration of the sensor surface was performed using 10 mM Gly pH 2.0. The data for monoclonal antibodies were fit using a bivalent binding model where the apparent affinity (KD) was reported as the ratio of koff/kₒₙ. A Langmuir 1:1 binding model was used for kinetics analysis of Fabs.

[10] = biological target: T3, Peptide-2; assay: SPR ProteOn, peptide captured, Fab as analyte
Method: as §4, §5, §6

[11] = biological target: T3, Peptide-2; assay: SPR ProteOn, mAb captured, peptide as analyte; range of n=2; upper end of n=2 range
Method: as §4
(§9) Monoclonal antibody/Peptide binding. […] Anti-human IgG was amine-coupled to the chip surface using EDC/NHS, then washed with ethanolamine. Antibodies were diluted to 2 μg/mL in PBST and injected on the surface for 5 min at 30 μL/min to achieve a maximum density of 900-1000 RU. Peptides were injected as analytes at 60 μL/min for 3 min, followed by 5 min dissociation. Peptide-2 was diluted in PBST to generate a three-fold concentration series (0-30 nM) and measured in duplicate. Single measurements of monoclonal antibody binding to Peptide-8 were recorded over the concentration range 0-100 nM.
as §6

[12] = biological target: T2, PHF-tau (paired helical filament tau …); assay: SPR ProteOn, PHF-tau capture-coupled via HT7, bivalent model
Method: as §7, §8

[13] = biological target: T3, Peptide-2; assay: SPR ProteOn, mAb captured, peptide as analyte
Method: as §4, §9, §6

[14] = biological target: T3, Peptide-2; assay: SPR ProteOn, mAb captured, peptide as analyte; range of n=2; lower end of n=2 range
Method: as §4, §9
as §6, with “The data were fit using a simple Langmuir 1:1 binding model.” left out

[15] = biological target: T3, Peptide-2; assay: SPR ProteOn, mAb captured, peptide as analyte; range of n=2
Method: as §4, §9, §6

[16] = biological target: T4, Peptide-8 (human, phosphothreonine 212 (tau 2N4R numbering); SCBiot and dPEG4 at the N-terminus; amide at the C-terminus); assay: SPR ProteOn, mAb captured by anti-human Fc, peptide as analyte; poor data fit
T4 construct: also called pT212-tau peptide (Peptide-8)
Method: as §4, §9, §6

[17] = biological target: T2, PHF-tau (paired helical filament tau …); assay: SPR ProteOn, PHF-tau

B1: B330 (Fab of B711) (Fab, V domains shown)
VH: QVQLVESGGGVVQPGRSLRLSCAASGFTFTSYAMSWVRQAPGKGLEWVASITKGGNTYYADSVKGRFTISRDNSKNTLYLQMNSLRAEDTAVYYCARGWGIYGWFAYWGQVTLVTVSS
VL: DIQMTQSPSSLSASVGDRVTITCKASQDINRWLNWFQQKPGKAPKSLIYRANRLLDGVPSRFSGSGSGTDFTLTISSLQPEDFATYYCLQYDEFPLTFGQGTKLEIK
notes: the Fab's constant parts and tag are not described; also called M330; M333 (the Fab of B711)
For B1, the “EC50 (read off the curve)” value [1] was ~0.2 nM, the Kd [2] was 0.0153 nM and the koff [2] was 6.94e-05 s⁻¹. The kon [2] was 4.53e+06 M⁻¹ s⁻¹, the EC50 [3] was 0.107 nM and the Kd [4] was 0.0158 nM. The koff [4] was 7.36e-05 s⁻¹, the kon [4] was 4.66e+06 M⁻¹ s⁻¹ and the Kd [5] was 0.0156 nM. For the same binder, the koff [5] was 7.15e-05 s⁻¹ and the kon [5] was 4.6e+06 M⁻¹ s⁻¹.

B2: B326 (Fab of B252) (Fab, V domains shown)
VH: B1 VH with V11L, Q13K, R16G, T30S, V37I, A49S, T52S, S74A, T77S, I101D
VL: DIVMTQTPLSSPVTLGQPASISCKASQDINRYLNWLQQRPGQPPRLLIYRANRLLDGVPDRFSGSGAGTDFTLKISRVEAEDVGVYYCLQYDEFPLTFGQGTKLEIK
notes: also called B252 Fab
A Kd [6] of 0.387 to 0.599 nM, a koff [6] of 0.000304 s⁻¹ and a kon [6] of 507000 M⁻¹ s⁻¹ were found for B2 in this work. For the same binder, the koff [7] was 0.000353 s⁻¹, the kon [7] was 912000 M⁻¹ s⁻¹ and the “fold weaker KD than the mouse PT3 parent Fab B187” value [8] was 3.3 fold. It also gave a Kd [9] of 0.224 nM, a koff [9] of 0.00023 s⁻¹ and a kon [9] of 1.02e+06 M⁻¹ s⁻¹. It also gave a Kd [10] of 0.493 nM, a koff [10] of 0.000329 s⁻¹ and a kon [10] of 710000 M⁻¹ s⁻¹.

B3: B235 (antibody, human IgG1, V domains shown)
VH: B1 VH with Q1E, V5L, V11L, R16G, T30S, A49S, T52S, R97K, I101D
VL: B1 VL with W32Y
notes: Humanized (HFA) PT3 variant, human IgG1/kappa; also called VH91/VL77
A koff [11] of 0.0061 s⁻¹, a kon [11] of 3.58e+06 M⁻¹ s⁻¹ and a Kd [12] of 0.165 nM were found for B3 in this work. It also gave a koff [12] of 8.06e-05 s⁻¹, a kon [12] of 490000 M⁻¹ s⁻¹ and a Kd [13] of 1.79 nM. It also gave a koff [13] of 0.00569 s⁻¹, a kon [13] of 3.21e+06 M⁻¹ s⁻¹ and a koff [14] of 0.00528 s⁻¹. The Kd [15] was 1.71 to 1.86 nM and the kon [15] was 2.84e+06 M⁻¹ s⁻¹.

B4: B280 (antibody, human IgG1, V domains shown)
VH: B1 VH with Q1E, V5L, V11L, R16G, T30S, A49S, T52S, R97K, I101D
VL: B2 VL
notes: Humanized (HFA) PT3 variant, human IgG1/kappa; also called VH91/VL80
A koff [11] of 0.00301 s⁻¹, a kon [11] of 7.2e+06 M⁻¹ s⁻¹ and a Kd [16] of 34.7 nM were found for B4 in this work. For the same binder, the koff [16] was 0.00757 s⁻¹, the kon [16] was 218000 M⁻¹ s⁻¹ and the Kd [12] was 0.055 nM. It also gave a koff [12] of 5.63e-05 s⁻¹, a kon [12] of 1.02e+06 M⁻¹ s⁻¹ and a Kd [13] of 0.769 nM. The koff [13] was 0.00274 s⁻¹, the kon [13] was 4.71e+06 M⁻¹ s⁻¹ and the Kd [15] was 0.418 to 1.12 nM. For the same binder, the koff [15] was 0.00246 s⁻¹ and the kon [15] was 2.21e+06 M⁻¹ s⁻¹.

B5: PT1 mAb (hyb) (antibody, V domains shown)
VH: QVQLQQSGTELMKPGASVKISCKATGYTFSSSWMGWVKQRPGHGLEWIGDILPGSGGTNYNERFKGKASFTAETSSNTAYMQLSSLTSEDSAVYYCVRSYYDYDRFANWGQGTLVTVSA
VL: DIVMTQAAPSVPVTPGESVSISCRSSESLLHSNGNTYLYWFLQRPGQSPQLLIYRMSNLASGVPDRFSGSGSGTAFTLRISRVEAEDVGVYYCMQYLEYPLTFGAGTKLELK
A Kd [17] of 0.322 nM, a koff [17] of 6.47e-05 s⁻¹ and a kon [17] of 201000 M⁻¹ s⁻¹ were found for B5 in this work.
